This assay addresses human factor Xa (Enzyme Research Laboratories, Inc.) (human, UniProt P00742 41-179; P00742 235-488, limits assumed). Nature of the assay: chromogenic FXa inhibition. As to the method: TBS-P buffer (50 mM Tris-Cl, pH 7.8, 200 mM NaCl, 0.05% (w/v) PEG-8000, 0.02% (w/v) NaN_3) was used for this assay. The IC$50$ was determined by combining in appropriate wells of a Costar half-area microtiter plate 25 μl human factor Xa (Enzyme Research Laboratories, Inc.; South Bend Ind.) in TBS-P; 40 μl 10% (v/v) DMSO in TBS-P (uninhibited control) or various concentrations of a peptide to be tested diluted in 10% (v/v) DMSO in TBS-P; and substrate S-2765 (Nα-benzyloxycarbonyl-D-Arg-Gly-L-Arg-p-nitroanilide; Kabi Pharmacia, Inc.; Franklin Ohio) in TBS-P.
The assays were performed by pre-incubating the peptide inhibitor plus enzyme for 10 min, then the assay was initiated by adding substrate to obtain a final volume of 100 μl. The initial velocity of chromogenic substrate hydrolysis was measured by the change in absorbance at 405 nm using a Bio-tek Instruments kinetic plate reader (Ceres UV900HDi) at 25° C. during the linear portion of the time course (usually 1–5 min after addition of substrate). The concentration of inhibitor that caused a 50% decrease in the rate of substrate hydrolysis was predicted by linear regression after plotting the relative rates of hydrolysis (compared to the uninhibited control) versus the log of the peptide concentration. The enzyme concentration was 0.5 nM and substrate concentration was 140 μM.

As a reminder, the Ki is a measure of affinity in units of concentration, obtained from inhibition or displacement. Low readings indicate tighter binding, high ones weaker binding.

Non-standard residues stand in square brackets, D forms with d. No end group written: not given here. *: point of attachment. Ala(1-Me-3-pyridinium) = C[n+]1cccc(C[C@H](N)C(=O)O)c1; Phe(4-guanidino) = N=C(N)Nc1ccc(C[C@H](N)C(=O)O)cc1; Phe(4-CN) = N#Cc1ccc(C[C@H](N)C(=O)O)cc1; Phe(4-NH2) = Nc1ccc(C[C@H](N)C(=O)O)cc1; dPhe(4-F) = N[C@H](Cc1ccc(F)cc1)C(=O)O; 1Nal = N[C@@H](Cc1cccc2ccccc12)C(=O)O; 2Nal = N[C@@H](Cc1ccc2ccccc2c1)C(=O)O; (CH3CH2CH2(CH3))G = N-alkylglycine; Gly(N-cHex) = O=C(O)CNC1CCCCC1; Chg = N[C@H](C(=O)O)C1CCCCC1; Nle = CCCC[C@H](N)C(=O)O; Nphe = O=C(O)CNCc1ccccc1; Tfa = O=C(C(F)(F)F)*

Chain of human factor Xa (Enzyme Research Laboratories, Inc.) (P00742 41-179 limits assumed, chain 1 of 2): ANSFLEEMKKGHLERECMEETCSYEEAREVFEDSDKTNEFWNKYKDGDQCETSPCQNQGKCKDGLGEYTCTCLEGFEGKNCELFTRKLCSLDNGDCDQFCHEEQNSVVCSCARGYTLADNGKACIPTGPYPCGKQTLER
Chain of human factor Xa (Enzyme Research Laboratories, Inc.) (P00742 235-488 limits assumed, chain 2 of 2): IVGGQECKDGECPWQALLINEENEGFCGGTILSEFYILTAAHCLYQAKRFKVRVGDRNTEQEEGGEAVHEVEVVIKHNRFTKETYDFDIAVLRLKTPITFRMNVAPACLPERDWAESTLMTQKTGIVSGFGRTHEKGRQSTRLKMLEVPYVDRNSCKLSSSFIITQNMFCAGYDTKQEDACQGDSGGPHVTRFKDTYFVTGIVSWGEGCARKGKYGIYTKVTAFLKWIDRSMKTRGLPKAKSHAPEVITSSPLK

Regarding Ac-YIRLP-NH2 (also: pseudo peptide bond ψ(CH2N(Ac)) between Y1 and I2) [Ac-Y-{ψ(CH2N(Ac))}-I-R-L-P-NH2], the inhibition constant (Ki) is less than 100 µM.

B1: Ac-F(pNH2)-Chg-R-(Bzl)G-G-OH (peptide)
peptide: Ac-[Phe(4-NH2)][Chg]R[Nphe]G-OH
SMILES: CC(=O)N[C@@H](Cc1ccc(N)cc1)C(=O)N[C@H](C(=O)N[C@@H](CCCNC(=N)N)C(=O)N(CC(=O)NCC(=O)O)Cc1ccccc1)C1CCCCC1
For B1, the inhibition constant (Ki) is less than 100 µM.

B2: Ac-F(pCN)-I-R-L-P-NH2 (peptide)
peptide: Ac-[Phe(4-CN)]IRLP-NH2
SMILES: CC[C@H](C)[C@H](NC(=O)[C@H](Cc1ccc(C#N)cc1)NC(C)=O)C(=O)N[C@@H](CCCNC(=N)N)C(=O)N[C@@H](CC(C)C)C(=O)N1CCC[C@H]1C(N)=O
The molecule B2 had a Ki of less than 100 µM.

As to Ac-[2Nal]IRLP-NH2 [Ac-Nal(2)-I-R-L-P-NH2], the inhibitory constant (Ki) is less than 100 µM.

Ac-YIRL [Ac-Y-I-R-L] had a Ki of less than 100 µM.

The molecule Tfa-[N(iBu)Y]IRG-NH2 [Tfa-(iBu)Y-I-R-G-NH2] returned a Ki of less than 100 µM.

Molecule Ac-YNRL-NH2 [Ac-Y-N-R-L-NH2] registered a Ki of less than 100 µM.

Regarding FIRL-NH2 (probably F-I-R-L-NH2) [F-I-R-L-N-H2], the inhibitory constant (Ki) was less than 100 µM.

The molecule Ac-YIRI [Ac-Y-I-R-I] came in with a Ki of less than 100 µM.

B3: Ac-G-y-Nle-R-L-NH2 (peptide)
peptide: Ac-G[dY][Nle]RL-NH2
SMILES: CCCC[C@H](NC(=O)[C@@H](Cc1ccc(O)cc1)NC(=O)CNC(C)=O)C(=O)N[C@@H](CCCNC(=N)N)C(=O)N[C@@H](CC(C)C)C(N)=O
In turn, B3 gave an inhibition constant Ki of less than 100 µM.

As to Ac-GGYIRG-NH2 [Ac-G-G-Y-I-R-G-NH2], the inhibition constant Ki was less than 100 µM.

Ac-YIRLP-NH2 (also: reduced pseudo peptide bond ψ(CH2NH) between I2 and R3) [Ac-Y-I-{ψ(CH2NH)}-R-L-P-NH2] yielded a Ki of less than 100 µM.

The molecule Ac-SYIRLP-NH2 [Ac-S-Y-I-R-L-P-NH2] yielded a Ki of less than 100 µM.

The molecule GYIRLP-NH2 [G-Y-I-R-L-P-NH2] displayed an inhibitory constant (Ki) of less than 100 µM.

B4: Ac-G-Y-Nle-R-L-NH2 (peptide)
peptide: Ac-GY[Nle]RL-NH2
SMILES: CCCC[C@H](NC(=O)[C@H](Cc1ccc(O)cc1)NC(=O)CNC(C)=O)C(=O)N[C@@H](CCCNC(=N)N)C(=O)N[C@@H](CC(C)C)C(N)=O
B4 displayed an inhibition constant Ki of less than 100 µM.

In turn, Ac-WLRLA-NH2 [Ac-W-L-R-L-A-NH2] had a Ki of less than 100 µM.

Turning to WLRVA-NH2 [W-L-R-V-A-NH2], the inhibitory constant (Ki) was less than 100 µM.

B5: w-L-R-V-A-NH2 (peptide)
peptide: [dW]LRVA-NH2
modifications: N-terminus assumed
SMILES: CC(C)C[C@H](NC(=O)[C@H](N)Cc1c[nH]c2ccccc12)C(=O)N[C@@H](CCCNC(=N)N)C(=O)N[C@H](C(=O)N[C@@H](C)C(N)=O)C(C)C
Molecule B5 registered an inhibitory constant (Ki) of less than 100 µM.

Ac-[Phe(4-NH2)][Chg]R[(CH3CH2CH2(CH3))G]G-OH (name runs over rows r100 and r101) [Ac-F(pNH2)-Chg-R-(CH3CH2CH2(CH3))G-G-OH] gave an inhibitory constant (Ki) of less than 100 µM.

In the case of XIRLP (N-term Ac; Y1=Y(Me) O-methyl tyrosine; C-term NH2) [Ac-Y(Me)-I-R-L-P-NH2], the Ki was less than 100 µM.

B6: Ac-Y-I-PalMe(3)-L-P-NH2 (peptide)
peptide: Ac-YI[Ala(1-Me-3-pyridinium)]LP-NH2
SMILES: CC[C@H](C)[C@H](NC(=O)[C@H](Cc1ccc(O)cc1)NC(C)=O)C(=O)N[C@@H](Cc1ccc[n+](C)c1)C(=O)N[C@@H](CC(C)C)C(=O)N1CCC[C@H]1C(N)=O
On to B6, for which the Ki was less than 100 µM.

B7: Ac-Phe-(pGua)-I-R-L-P-NH2 (peptide)
peptide: Ac-[Phe(4-guanidino)]IRLP-NH2
SMILES: CC[C@H](C)[C@H](NC(=O)[C@H](Cc1ccc(NC(=N)N)cc1)NC(C)=O)C(=O)N[C@@H](CCCNC(=N)N)C(=O)N[C@@H](CC(C)C)C(=O)N1CCC[C@H]1C(N)=O
B7: the Ki is less than 100 µM.

The molecule Ac-YIRGP-NH2 (also: pseudo peptide bond ψ(COCH2) between R3 and G4) [Ac-Y-I-R-{ψ(COCH2)}-G-P-NH2] came in with an inhibitory constant (Ki) of less than 100 µM.

In the case of Ac-YNRLP-NH2 [Ac-Y-N-R-L-P-NH2], the Ki was less than 100 µM.

B8: Ac-f(pF)-I-R-L-P-NH2 (peptide)
peptide: Ac-[dPhe(4-F)]IRLP-NH2
SMILES: CC[C@H](C)[C@H](NC(=O)[C@@H](Cc1ccc(F)cc1)NC(C)=O)C(=O)N[C@@H](CCCNC(=N)N)C(=O)N[C@@H](CC(C)C)C(=O)N1CCC[C@H]1C(N)=O
As for B8, the Ki was less than 100 µM.

B9: f-I-R-I-P-NH2 (peptide)
peptide: [dF]IRIP-NH2
modifications: N-terminus assumed
SMILES: CC[C@H](C)[C@H](NC(=O)[C@H](N)Cc1ccccc1)C(=O)N[C@@H](CCCNC(=N)N)C(=O)N[C@H](C(=O)N1CCC[C@H]1C(N)=O)[C@@H](C)CC
Turning to B9, the Ki is less than 100 µM.

Regarding Ac-[dY]IRLA [Ac-y-I-R-L-A], the Ki is less than 100 µM.

Consider YIRGA-NH2 [Y-I-R-G-A-NH2], for which the inhibition constant (Ki) was less than 100 µM.

With [dY]IRGP-NH2 (also: R3-G4 (COCH2) bond replaces peptide bond) [y-I-R(COCH2)-G-P-NH2], the Ki was less than 100 µM.

YIRLA-NH2 [Y-I-R-L-A-NH2] showed an inhibition constant Ki of less than 100 µM.

B10: Y-I-R-L-a-NH2 (peptide)
peptide: YIRL[dA]-NH2
modifications: N-terminus assumed
SMILES: CC[C@H](C)[C@H](NC(=O)[C@@H](N)Cc1ccc(O)cc1)C(=O)N[C@@H](CCCNC(=N)N)C(=O)N[C@@H](CC(C)C)C(=O)N[C@H](C)C(N)=O
B10 came in with an inhibition constant Ki of less than 100 µM.

B11: f(pF)-I-R-L-P-NH2 (peptide)
peptide: [dPhe(4-F)]IRLP-NH2
modifications: N-terminus assumed
SMILES: CC[C@H](C)[C@H](NC(=O)[C@H](N)Cc1ccc(F)cc1)C(=O)N[C@@H](CCCNC(=N)N)C(=O)N[C@@H](CC(C)C)C(=O)N1CCC[C@H]1C(N)=O
Turning to B11, the Ki is less than 100 µM.

For YIRIY-NH2 [Y-I-R-I-Y-NH2], the inhibitory constant (Ki) was less than 100 µM.

B12: y-I-R-L-A-NH2 (peptide)
peptide: [dY]IRLA-NH2
modifications: N-terminus assumed
SMILES: CC[C@H](C)[C@H](NC(=O)[C@H](N)Cc1ccc(O)cc1)C(=O)N[C@@H](CCCNC(=N)N)C(=O)N[C@@H](CC(C)C)C(=O)N[C@@H](C)C(N)=O
B12 yielded a Ki of less than 100 µM.

The molecule {N‑morpholinyl‑CO}-FIRLP-NH2 [N-morpholinyl-CO-F-I-R-L-P-NH2] yielded an inhibitory constant (Ki) of less than 100 µM.

B13: f-I-R-F-P-NH2 (peptide)
peptide: [dF]IRFP-NH2
modifications: N-terminus assumed
SMILES: CC[C@H](C)[C@H](NC(=O)[C@H](N)Cc1ccccc1)C(=O)N[C@@H](CCCNC(=N)N)C(=O)N[C@@H](Cc1ccccc1)C(=O)N1CCC[C@H]1C(N)=O
Molecule B13 showed an inhibition constant (Ki) of less than 100 µM.

As for Ac-YIRLP-NH2 (also: reduced pseudo peptide bond ψ(CH2NH) between Y1 and I2) [Ac-Y-{ψ(CH2NH)}-I-R-L-P-NH2], the Ki was less than 100 µM.

B14: Ac-F(pNH2)-Chg-R-(Chx)G-G-OH (peptide)
peptide: Ac-[Phe(4-NH2)][Chg]R[Gly(N-cHex)]G-OH
SMILES: CC(=O)N[C@@H](Cc1ccc(N)cc1)C(=O)N[C@H](C(=O)N[C@@H](CCCNC(=N)N)C(=O)N(CC(=O)NCC(=O)O)C1CCCCC1)C1CCCCC1
B14 registered a Ki of less than 100 µM.

The molecule Ac-[1Nal]IRLP-NH2 [Ac-Nal(1)-I-R-L-P-NH2] had an inhibition constant (Ki) of less than 100 µM.

B15: Ac-F(pNH2)-I-R-L-P-NH2 (peptide)
peptide: Ac-[Phe(4-NH2)]IRLP-NH2
SMILES: CC[C@H](C)[C@H](NC(=O)[C@H](Cc1ccc(N)cc1)NC(C)=O)C(=O)N[C@@H](CCCNC(=N)N)C(=O)N[C@@H](CC(C)C)C(=O)N1CCC[C@H]1C(N)=O
Take B15: the Ki was less than 100 µM.
